B1: unnamed (parent)
chain 1: MKTLPVLPGQAASSRPSPVEIWQILLSRLLDQHYGLTLNDTPFADERVIEQHIEAGISLCDAVNFLVEKYALVRTDQPGFSACTRSQLINSIDILRARRATGLMTRDNYRTVNNITLGKYPEAK
chain 2: MFEPMELTNDAVIKVIGVGGGGGNAVEHMVRERIEGVEFFAVNTDAQALRKTAVGQTIQIGSGITKGLGAGANPEVGRNAADEDRDALRAALEGADMVFIAAGMGGGTGTGAAPVVAEVAKDLGILTVAVVTKPFNFEGKKRMAFAEQGITELSKHVDSLITIPNDKLLKVLGRGISLLDAFGAANDVLKGAVQGIAELITRPGLMNVDFADVRTVMSEMGYAMMGSGVASGEDRAEEAAEMAISSPLLEDIDLSGARGVLVNITAGFDLRLDEFETVGNTIRAFASDNATVVIGTSLDPDMNDELRVTVVATGIGMDKRPEITLVTNKQVQQPVMDRYQQHGMAPLTQEQKPVAKVVNDNAPQTAKEPDYLDIPAFLRKQAD
B2: unnamed (parent)
chain 1: B1 chain 1
chain 2: MLKKFRGMFSNDLSIDLGTANTLIYVKGQGIVLNEPSVVAIRQDRAGSPKSVAAVGHDAKQMLGRTPGNIAAIRPMKDGVIADFFVTEKMLQHFIKQVHSNSFMRPSPRVLVCVPVGATQVERRAIRESAQGAGAREVFLIEEPMAAAIGAGLPVSEATGSMVVDIGGGTTEVAVISLNGVVYSSSVRIGGDRFDEAIINYVRRNYGSLIGEATAERIKHEIGSAYPGDEVREIEVRGRNLAEGVPRGFTLNSNEILEALQEPLTGIVSAVMVALEQCPPELASDISERGMVLTGGGALLRNLDRLLMEETGIPVVVAEDPLTCVARGGGKALEMIDMHGGDLFSEE
B3: α-FtsZ fusion protein (wild-type E. coli FtsZ) [E. coli] / α-FtsZ fusion protein (wild-type E. coli FtsZ) [E. coli] (parent)
chain 1: B1 chain 2
chain 2: B1 chain 2

The first test covers variants of B1. The experiment in a line: bacterial two-hybrid β-galactosidase assay. Conditions: with partner chain of the complex shown; 100 μM IPTG; parent: 2e+03; read off a plot.
With chain 2 MFEPMELTNDAVIKVIGVGGGGGNAVEHMVRERIEGVEFFAVNTDAQALRKTAVGQTIQIGSGITKGLGAGANPEVGRNAADEDRDALRAALEGADMVFIAAGMGGGTGTGAAPVVAEVAKDLGILTVAVVTKPFNFEGKKRMAFAEQGITELSKHVDSLITIPNDKLLKVLGRGISLLDASGAANDVLKGAVQGIAELITRPGLMNVDFADVRTVMSEMGYAMMGSGVASGEDRAEEAAEMAISSPLLEDIDLSGARGVLVNITAGFDLRLDEFETVGNTIRAFASDNATVVIGTSLDPDMNDELRVTVVATGIGMDKRPEITLVTNKQVQQPVMDRYQQHGMAPLTQEQKPVAKVVNDNAPQTAKEPDYLDIPAFLRKQAD [chain 2 F182S], the response amounted to 260 Miller Units.
For the variant chain 2 MFEPMELTNDAVIKVIGVGGGGGNAVEHMVRERIEGVEFFAVNTDAQALRKTAVGQTIQIGSGITKGLGAGANPEVGRNAADEDRDALRAALEGADMVFIAAGMGGGTGTGAAPVVAEVAKDLGILTVAVVTKPFNFEGKKRMAFAEQGITELSKHVDSLITIPNDKLLKVLGRGISLRDAFGAANDVLKGAVQGIAELITRPGLMNVDFADVRTVMSEMGYAMMGSGVASGEDRAEEAAEMAISSPLLEDIDLSGARGVLVNITAGFDLRLDEFETVGNTIRAFASDNATVVIGTSLDPDMNDELRVTVVATGIGMDKRPEITLVTNKQVQQPVMDRYQQHGMAPLTQEQKPVAKVVNDNAPQTAKEPDYLDIPAFLRKQAD [chain 2 L179R], the response came out at 250 Miller Units.

The same test, now with this note: with partner chain of the complex shown; 25 μM IPTG; parent: 1.5e+03; read off a plot.
As for chain 1 MKTLPVLPGQAASSRPSPVEIWQILLSRLLDQHYGLTLNDTPFADERVIEQHIEAGISLCDAVNSLVEKYALVRTDQPGFSACTRSQLINSIDILRARRATGLMTRDNYRTVNNITLGKYPEAK [chain 1 F65S], the response was found to be 75 Miller Units.
For the variant chain 1 MKTLPVLPGQAASSCPSPVEIWQILLSRLLDQHYGLTLNDTPFADERVIEQHIEAGISLCDAVNFLVEKYALVRTDQPGFSACTRSQLINSIDILRARRATGLMTRDNYRTVNNITLGKYPEAK [chain 1 R15C], the response came out at 1300 Miller Units.

In another test the parent is B2. As to the kind of experiment: bacterial two-hybrid β-galactosidase assay. The note with it: with partner chain of the complex shown; 100 μM IPTG; parent: 310; read off a plot.
With chain 1 F65S, the response turned out to be 330 Miller Units.
Turning to chain 1 R15C, the response turned out to be 130 Miller Units.

The next test covers variants of B3. As to the kind of experiment: bacterial two-hybrid β-galactosidase assay. Conditions: with α-FtsZ fusion protein (wild-type E. coli FtsZ) [E. coli]; 100 μM IPTG; parent: 320; read off a plot.
Take chain 1 MFEPMELTNDAVIKVIGVGGGGGNAVEHMVRERIEGVEFFAVNTDAQALRKTAVGQTIQIGSGITKGLGAGANPEVGRNAADEDRDALRAALEGADMVFIAAGMGGGTGTGAAPVVAEVAKDLGILTVAVVTKPFNFEGKKRMAFAEQGITELSKHVDSLITIPNDKLLKVLGRGISLRDAFGAANDVLKGAVQGIAELITRPGLMNVDFADVRTVMSEMGYAMMGSGVASGEDRAEEAAEMAISSPLLEDIDLSGARGVLVNITAGFDLRLDEFETVGNTIRAFASDNATVVIGTSLDPDMNDELRVTVVATGIGMDKRPEITLVTNKQVQQPVMDRYQQHGMAPLTQEQKPVAKVVNDNAPQTAKEPDYLDIPAFLRKQAD [chain 1 L179R]: the response worked out at 250 Miller Units.
In the case of chain 1 MFEPMELTNDAVIKVIGVGGGGGNAVEHMVRERIEGVEFFAVNTDAQALRKTAVGQTIQIGSGITKGLGAGANPEVGRNAADEDRDALRAALEGADMVFIAAGMGGGTGTGAAPVVAEVAKDLGILTVAVVTKPFNFEGKKRMAFAEQGITELSKHVDSLITIPNDKLLKVLGRGISLLDASGAANDVLKGAVQGIAELITRPGLMNVDFADVRTVMSEMGYAMMGSGVASGEDRAEEAAEMAISSPLLEDIDLSGARGVLVNITAGFDLRLDEFETVGNTIRAFASDNATVVIGTSLDPDMNDELRVTVVATGIGMDKRPEITLVTNKQVQQPVMDRYQQHGMAPLTQEQKPVAKVVNDNAPQTAKEPDYLDIPAFLRKQAD [chain 1 F182S], the response turned out to be 260 Miller Units.

These data come from publication PMC5624674.
